Our source for the Kd, koff and kon values is article PMC4908242, “Functional Characterization of a Small-Molecule Inhibitor of the DKK1-LRP6 Interaction” (ISRN Molecular Biology, 2012).

Experiment [1] addresses T1, Full-length human LRP6-Fc tagged (R&D Systems) (human, UniProt O75581 20-1613). The experiment can be described thus: SPR; Biacore T100. LRP6-Fc (0.5 μg/mL) captured on Protein A that was amine-coupled to a CM3 chip; DKK1 3-54 nM injected; HBS-EP+ pH 7.4, 25°C; apparent KD. The settings on record: both partners purified.
In experiment [2] the target is T1, Full-length human LRP6-Fc tagged (R&D …). As to the kind of experiment: SPR; Biacore T100. LRP6-Fc immobilised by amine coupling on a CM3 chip (3000 RU); DKK1 3-54 nM injected for 180 sec; HBS-EP+ pH 7.4, 25°C; apparent KD calculated as kd/ka. The settings on record: both partners purified.

T1 sequence (O75581 20-1613): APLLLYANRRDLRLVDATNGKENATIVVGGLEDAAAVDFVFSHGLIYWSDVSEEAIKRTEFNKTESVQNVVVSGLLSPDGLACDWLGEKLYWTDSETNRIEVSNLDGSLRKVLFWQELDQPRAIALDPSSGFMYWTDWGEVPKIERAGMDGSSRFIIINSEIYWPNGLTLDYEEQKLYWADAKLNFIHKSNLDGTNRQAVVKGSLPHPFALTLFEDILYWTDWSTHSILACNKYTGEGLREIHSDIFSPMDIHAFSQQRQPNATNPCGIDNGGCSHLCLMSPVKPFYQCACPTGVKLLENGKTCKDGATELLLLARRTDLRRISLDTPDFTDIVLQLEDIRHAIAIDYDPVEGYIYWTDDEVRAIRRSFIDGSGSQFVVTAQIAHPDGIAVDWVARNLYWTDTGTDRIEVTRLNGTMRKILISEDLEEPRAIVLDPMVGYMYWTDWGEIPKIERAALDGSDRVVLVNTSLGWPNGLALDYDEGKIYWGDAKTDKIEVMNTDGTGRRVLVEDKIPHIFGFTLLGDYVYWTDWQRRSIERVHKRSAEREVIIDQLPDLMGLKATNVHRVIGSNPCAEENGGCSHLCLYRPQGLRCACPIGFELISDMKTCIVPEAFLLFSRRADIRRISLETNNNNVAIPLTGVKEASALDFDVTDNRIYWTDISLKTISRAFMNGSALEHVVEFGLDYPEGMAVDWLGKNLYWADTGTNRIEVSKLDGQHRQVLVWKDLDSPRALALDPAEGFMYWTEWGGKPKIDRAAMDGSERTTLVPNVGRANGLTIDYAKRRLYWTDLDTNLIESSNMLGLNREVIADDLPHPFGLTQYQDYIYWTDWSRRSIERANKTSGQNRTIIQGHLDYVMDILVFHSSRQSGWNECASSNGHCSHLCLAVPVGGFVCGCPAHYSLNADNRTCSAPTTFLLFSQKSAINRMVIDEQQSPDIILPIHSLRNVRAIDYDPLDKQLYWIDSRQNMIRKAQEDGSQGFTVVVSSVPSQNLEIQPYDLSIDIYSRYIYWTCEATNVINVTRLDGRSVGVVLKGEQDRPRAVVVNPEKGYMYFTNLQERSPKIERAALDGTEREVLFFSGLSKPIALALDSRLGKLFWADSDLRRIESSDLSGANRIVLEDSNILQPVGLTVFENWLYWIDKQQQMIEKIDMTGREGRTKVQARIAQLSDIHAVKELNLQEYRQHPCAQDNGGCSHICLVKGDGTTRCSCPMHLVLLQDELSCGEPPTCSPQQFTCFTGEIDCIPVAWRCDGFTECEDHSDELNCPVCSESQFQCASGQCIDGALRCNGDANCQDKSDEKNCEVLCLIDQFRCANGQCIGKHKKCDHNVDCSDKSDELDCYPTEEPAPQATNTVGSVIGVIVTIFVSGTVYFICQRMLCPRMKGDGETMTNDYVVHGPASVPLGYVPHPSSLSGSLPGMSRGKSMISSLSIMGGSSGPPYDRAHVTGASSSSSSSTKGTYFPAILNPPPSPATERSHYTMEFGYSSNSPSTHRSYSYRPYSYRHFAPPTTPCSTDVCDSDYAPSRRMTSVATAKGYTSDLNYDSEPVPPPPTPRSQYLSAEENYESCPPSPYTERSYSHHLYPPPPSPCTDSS

B1: Commercial purified recombinant human DKK1 (ligand, UniProt O94907 32-266, looked up)
chain: TLNSVLNSNAIKNLPPPLGGAAGHPGSAVSAAPGILYPGGNKYQTIDNYQPYPCAEDEECGTDEYCASPTRGGDAGVQICLACRKRRKRCMRHAMCCPGNYCKNGICVSSDQNHFRGEIEETITESFGNDHSTLDGYSRRTTLSSKMYHTKGQEGSVCLRSSDCASGLCCARHFWSKICKPVLKEGQVCTKHRRKGSHGLEIFQRCYCGEGLSCRIQKDHHQASNSSRLHTCQRH
notes: Dickkopf 1 (DKK1), human, commercial recombinant protein; Neither catalogue number nor construct limits are printed; also called Dickkopf 1; commercial recombinant DKK1; source: bought: R&D Systems, purified recombinant
As a reminder, the koff is the first-order rate constant of dissociation. As a reminder, the kon is the rate constant with which the complex forms. Take B1: in experiment [1], the Kd amounted to 0.84 nM. Further, in experiment [2], the Kd is 0.349 nM, the dissociation rate constant (koff) was 0.00183 s⁻¹ and the association rate constant (kon) is 5.26e+06 M⁻¹ s⁻¹.
